Laboratory results taken from patent publication US20170313754A1 (PROTAGONIST THERAPEUTICS, published 2017).
Numbered stars: 1 amine (or outer) side, 2 acyl side, 3 side chain; on linkers, the order of the positions; unused ones are H or OH. Bridge positions count the residues as written; N and C are the ends. Square brackets hold non-standard residues; d marks the D form. Ends that are not written are not given here. * marks the point of attachment. Ida = iminodiacetic acid, O=C(CN(CC(=O)[*:3])[*:1])[*:2]; Dip = N[C@H](C(=O)O)C(c1ccccc1)c1ccccc1; β3hF = N[C@H](CC(=O)O)Cc1ccccc1; pGlu = O=C1CC[C@@H](C(=O)O)N1; β3hP = O=C(O)C[C@@H]1CCCN1; Isovaleryl = CC(C)CC(=O)*

T1: human ferroportin (SLC40A1) fused in frame with GFP, stably expressed in HEK293 cells (human, UniProt Q9NP59 1-571)
T1 sequence (looked up): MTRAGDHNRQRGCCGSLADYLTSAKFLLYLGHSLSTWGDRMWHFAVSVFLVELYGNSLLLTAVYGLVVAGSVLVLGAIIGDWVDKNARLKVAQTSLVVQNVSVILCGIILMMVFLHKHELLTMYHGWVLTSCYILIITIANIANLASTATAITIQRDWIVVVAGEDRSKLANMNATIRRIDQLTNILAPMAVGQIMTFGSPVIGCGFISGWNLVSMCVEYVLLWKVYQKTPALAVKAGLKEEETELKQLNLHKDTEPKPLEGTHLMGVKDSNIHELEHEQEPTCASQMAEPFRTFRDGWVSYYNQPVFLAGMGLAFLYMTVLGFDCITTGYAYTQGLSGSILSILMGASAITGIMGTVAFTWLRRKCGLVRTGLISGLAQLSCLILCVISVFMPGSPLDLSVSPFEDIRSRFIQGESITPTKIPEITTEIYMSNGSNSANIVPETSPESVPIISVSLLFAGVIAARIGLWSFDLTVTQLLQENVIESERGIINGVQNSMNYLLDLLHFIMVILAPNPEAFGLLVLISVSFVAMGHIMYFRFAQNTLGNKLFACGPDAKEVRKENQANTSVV


Molecular target: T1, human ferroportin (SLC40A1) fused in …
Experiment: cell-based or functional assay

| Binder | Potency EC50 (nM), ferroportin-GFP internalization/degradation | Potency: percent at the stated concentration, ferroportin-GFP internalization/degradation |
| --- | --- | --- |
| Isovaleryl-DTHFPCIIF-NH2 (SMILES CC[C@H](C)[C@H](NC(=O)[C@H](CS)NC(=O)[C@@H]1CCCN1C(=O)[C@H](Cc1ccccc1)NC(=O)[C@H](Cc1c[nH]cn1)NC(=O)[C@@H](NC(=O)[C@H](CC(=O)O)NC(=O)CC(C)C)[C@@H](C)O)C(=O)N[C@H](C(=O)N[C@@H](Cc1ccccc1)C(N)=O)[C@@H](C)CC) [Isovaleric acid-DTHFPCIIF-NH2] | 16 nM | – |
| Isovaleryl-DTHFPCRRFGPRSKGWVCK-NH2 (disulfide 6-18 (inferred)) [Isovaleric acid-DTHFPCRRFGPRSKGWVCK-NH2] | > 1000 nM | – |
| H-ETHFPCIIF-NH2 [Hy-ETHFPCIIF-NH2] | – | 77 % at 1 µM |
| Isovaleryl-DTHFPCKIFGPRSKGWVCK-NH2 (disulfide 6-18 (inferred)) [Isovaleric acid-DTHFPCKIFGPRSKGWVCK-NH2] | 86 nM | – |
| H-DTHFPCLF-NH2 [Hy-DTHFPCLF-NH2] | – | 39 % at 1 uM |
| H-DTHFPRRFGPRSKGWVC-NH2 [Hy-DTHFPRRFGPRSKGWVC-NH2] | > 1000 nM | – |
| H-LTHFPCIIF-NH2 [Hy-LTHFPCIIF-NH2] | – | 64 % at 1 µM |
| H-DTHFPCIEK-NH2 [Hy-DTHFPCIEK-NH2] | – | 0 % at 1 µM |
| H-DTHFPCIKFF-NH2 [Hy-DTHFPCIKFF-NH2] | – | 64 % at 1 µM |
| [pGlu]THFPCRKF-NH2 (SMILES C[C@@H](O)[C@H](NC(=O)[C@@H]1CCC(=O)N1)C(=O)N[C@@H](Cc1c[nH]cn1)C(=O)N[C@@H](Cc1ccccc1)C(=O)N1CCC[C@H]1C(=O)N[C@@H](CS)C(=O)N[C@@H](CCCNC(=N)N)C(=O)N[C@@H](CCCCN)C(=O)N[C@@H](Cc1ccccc1)C(N)=O) [Hy-[pGlu]-THFPCRKF-NH2] | > 1000 nM | – |
| H-DTHFPCLIF-NH2 [Hy-DTHFPCLIF-NH2] | > 10000 nM | – |
| H-DTHFPCIF-NH2 [Hy-DTHFPCIF-NH2] | – | 52 % at 1 µM |
| H-DTHFPCRF-NH2 [Hy-DTHFPCRF-NH2] | – | 31 % at 10 uM |
| H-DTHFPCILF-NH2 [Hy-DTHFPCILF-NH2] | – | 89 % at 1 µM |
| H-DTHFPCRIF-NH2 [Hy-DTHFPCRIF-NH2, listing 1 of 2 here] | – | 31 % at 10 uM |
| Isovaleryl-DTHFPCIKKEPHSKECK-NH2 (disulfide 6-16 (inferred)) [Isovaleric acid-DTHFPCIKKEPHSKECK-NH2] | > 1000 nM | – |
| H-DTHFPCVIF-NH2 [Hy-DTHFPCVIF-NH2] | – | 81 % at 10 uM |
| Isovaleryl-DTHFPCKIFGPRSKGWECK-NH2 (disulfide 6-18 (inferred)) [Isovaleric acid-DTHFPCKIFGPRSKGWECK-NH2] | 163 nM | – |

| Binder | Potency EC50 (nM), ferroportin-GFP internalization/degradation | Potency: percent at the stated concentration, ferroportin-GFP internalization/degradation |
| --- | --- | --- |
| H-DTHFPCKIF-NH2 [Hy-DTHFPCKIF-NH2] | – | 9 % at 10 uM |
| [Ida]TH[Dip][β3hP]CRR[β3hF]-NH2 [[IDA]-TH-[Dpa]-[bhPro]CRR-[bhPhe]-NH2] | 206 nM | – |
| H-DTHFPCAIF-NH2 [Hy-DTHFPCAIF-NH2] | > 1000 nM | – |
| [Ida]THF[β3hP]CRR[β3hF]GPRSKGWVC-NH2 (disulfide 6-18 (inferred)) [[IDA]-THF-[bhPro]-CRR-[bhPhe]GPRSKGWVC-NH2] | > 1000 nM | – |
| H-DTHFPCILK-NH2 [Hy-DTHFPCILK-NH2] | – | 55 % at 1 µM |
| H-DTKFPCIIF-NH2 [Hy-DTKFPCIIF-NH2] | – | 60 % at 1 µM |
| H-DTHFPCEIF-NH2 [Hy-DTHFPCEIF-NH2] | > 1000 nM | – |
| H-DTHFPCIVF-NH2 [Hy-DTHFPCIVF-NH2] | – | 75 % at 1 µM |
| H-DTHFPCQIF-NH2 [Hy-DTHFPCQIF-NH2] | > 1000 nM | – |
| H-DTHFPCFIF-NH2 [Hy-DTHFPCFIF-NH2] | 1190 nM | – |
| H-DTHFPCRIF-NH2 [Hy-DTHFPCRIF-NH2, listing 2 of 2 here] | > 1000 nM | – |
| H-DTHFPCIIR-NH2 [Hy-DTHFPCIIR-NH2] | – | 62 % at 1 µM |
| Isovaleryl-DTHFPCIKF-NH2 (SMILES CC[C@H](C)[C@H](NC(=O)[C@H](CS)NC(=O)[C@@H]1CCCN1C(=O)[C@H](Cc1ccccc1)NC(=O)[C@H](Cc1c[nH]cn1)NC(=O)[C@@H](NC(=O)[C@H](CC(=O)O)NC(=O)CC(C)C)[C@@H](C)O)C(=O)N[C@@H](CCCCN)C(=O)N[C@@H](Cc1ccccc1)C(N)=O) [Isovaleric acid-DTHFPCIKF-NH2] | 7 nM | – |
| DTHFPCIKFKPHSKECK (N-terminal isovaleric acid; K(isoglu-Palm) at Lys 10; C-terminal amide) [Isovaleric acid-DTHFPCIKF-K(isoglu-Palm)-PHSKECK-NH2] | 6 nM | – |
| H-DTHFPCRIFGPRSRGWVCK-NH2 (disulfide 6-18 (inferred)) [Hy-DTHFPCRIFGPRSRGWVCK-NH2] | > 1000 nM | – |
| H-DTHFPCIIK-NH2 [Hy-DTHFPCIIK-NH2] | – | 55 % at 1 µM |
| H-DTHFPIAICI-NH2 [Hy-DTHFPIAICI-NH2] | > 10000 nM | – |
| H-DTHFPCIFGPRSKGWVC-NH2 (disulfide 6-17 (inferred)) [Hy-DTHFPCIFGPRSKGWVC-NH2] | > 1000 nM | – |
